Laboratory results as given in publication PMC5529513.

Tests used:
ephrin-B3 Fc = ephrin-B3 Fc (UniProt Q15768); test: ELISA; conditions: Fc fusion
ephrin-A5 Fc [1] = molecular target: ephrin-A5 Fc (UniProt P52803); test: ELISA; conditions: Fc fusion
ephrin-A5 Fc [2] = molecular target: ephrin-A5 Fc (UniProt P52803); test: SPR; conditions: Fc fusion
ephrin-A5 Fc [3] = molecular target: ephrin-A5 Fc (UniProt P52803); test: SPR; BIAcore T200; ephrin-A5 Fc amine-coupled on CM5 chip; EphA4 Fc proteins 500 to 50 nM in 10 mM HEPES pH 7.4, 150 mM NaCl, 3 mM EDTA, 0.05% Surfactant P20; 30 µl/min; bivalent analyte model and steady state affinity model
[4] = molecular target: EphA4 Fc (wild type): human EphA4 ectodomain fused to IgG4 Fc (human) (UniProt P54764); test: AUC; sedimentation velocity, 10 mM potassium phosphate pH 7.6, 20 °C, 40,000 rpm, c(s) fit with SEDFIT; oligomeric state of the Fc fusion
[5] = molecular target: triple mutant of EphA4 Fc (N235Q, N340Q, N408Q) (human) (UniProt P54764); test: as above

Chain of UniProt Q15768 (Q15768 28-226): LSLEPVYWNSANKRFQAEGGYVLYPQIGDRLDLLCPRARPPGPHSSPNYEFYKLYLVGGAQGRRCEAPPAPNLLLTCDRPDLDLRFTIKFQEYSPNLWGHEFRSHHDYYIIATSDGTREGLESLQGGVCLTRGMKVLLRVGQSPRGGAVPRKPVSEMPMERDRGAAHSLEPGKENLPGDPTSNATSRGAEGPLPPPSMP

Row | Kd (ephrin-B3 Fc) [nM] | Kd (ephrin-A5 Fc [1]) [nM] | Kd (ephrin-A5 Fc [2]) [nM] | ka1 (bivalent analyte model) (ephrin-A5 Fc [3]) [M⁻¹ s⁻¹] | ka2 (bivalent analyte model) (ephrin-A5 Fc [3]) [RU^-1s^-1] | kd1 (bivalent analyte model) (ephrin-A5 Fc [3]) [s⁻¹] | kd2 (bivalent analyte model) (ephrin-A5 Fc [3]) [s⁻¹] | stoichiometry N [4] | stoichiometry N [5] | Substance
1 | 23.9 | 0.51 | 318 |  |  |  |  |  |  | EphA4 Fc (wild type): human EphA4 ectodomain fused to IgG4 Fc (from UniProt P54764-1 20-547)
2 |  |  |  | 56300 | 0.000112 | 0.0224 | 0.00106 | 2 |  | EphA4 Fc (wild type): human EphA4 ectodomain fused to IgG4 Fc (from UniProt P54764-1 20-547) (Fc fusion)
3 |  |  |  | 115000 | 5.4e-05 | 0.0184 | 2.66e-06 |  | 2 | triple mutant of EphA4 Fc (N235Q, N340Q, N408Q) (from UniProt P54764-1 20-547) (Fc fusion)
